Measurements reported in patent US20220332804A1 (CSL INNOVATION, published 2022).
Positions count from the first letter of the chain named.

Assays:
Experiment in all cases: SPR, mAb captured, C2 mutant analyte;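 further: Anti-C2 mAbs captured on goat anti-human IgG Biacore CM5 chips, alanine or serine C2 surface mutants flowed over at 37 °C, double-referenced sensorgrams fitted to a 1:1 binding model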
[1] = target: T1, human C2 I272A (human, UniProt P06681 21-752)
T1 sequence: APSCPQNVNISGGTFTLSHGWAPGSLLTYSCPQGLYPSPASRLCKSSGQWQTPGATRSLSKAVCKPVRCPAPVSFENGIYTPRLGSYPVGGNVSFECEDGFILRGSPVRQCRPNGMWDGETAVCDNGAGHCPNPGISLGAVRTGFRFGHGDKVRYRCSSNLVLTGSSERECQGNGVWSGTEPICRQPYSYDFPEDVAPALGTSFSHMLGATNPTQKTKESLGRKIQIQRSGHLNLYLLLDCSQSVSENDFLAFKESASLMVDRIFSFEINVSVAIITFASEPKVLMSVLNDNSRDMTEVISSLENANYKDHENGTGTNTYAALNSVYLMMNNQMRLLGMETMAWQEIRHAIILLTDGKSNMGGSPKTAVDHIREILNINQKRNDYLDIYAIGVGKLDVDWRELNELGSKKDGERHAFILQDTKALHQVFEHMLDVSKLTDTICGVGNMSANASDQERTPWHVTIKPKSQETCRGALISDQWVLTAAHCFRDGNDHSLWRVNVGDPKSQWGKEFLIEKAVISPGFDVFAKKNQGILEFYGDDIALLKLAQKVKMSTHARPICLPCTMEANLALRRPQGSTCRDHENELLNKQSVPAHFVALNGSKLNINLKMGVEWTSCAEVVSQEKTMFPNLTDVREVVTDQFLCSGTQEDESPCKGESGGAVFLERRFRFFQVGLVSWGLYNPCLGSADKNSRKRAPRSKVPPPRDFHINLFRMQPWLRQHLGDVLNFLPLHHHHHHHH

[2] = target: T2, human C2 I438A (human, UniProt P06681 21-752)
T2 sequence: T1 sequence with A252I, I418A

[3] = target: T3, human C2 L439A (human, UniProt P06681 21-752)
T3 sequence: T1 sequence with A252I, L419A

[4] = target: T4, human C2 A444S (human, UniProt P06681 21-752)
T4 sequence: T1 sequence with A252I, A424S

B1: RF16-214 (antibody, V domains shown)
VH: EVQLLESGGGLVQPGGSLRLSCAASGFTFSWYQMMWVRQAPGKGLEWVSRIYPSGGGTAYADSVKGRFTISRDNSKNTLYLQMNSLRAEDTAVYYCARDAGYGDNWGQGTLVTVSS
VL: QSALTQPPSVSVSPGQTASITCSGDKLGEKYASWYQQKAGQSPVMVIYQDRKRPSGIPERFSGSNSGNTATLTISGTQAMDEADYYCQAWDTRAVVFGGGTKLTVLG
- Kd [1]: 477 nM
- Kd [2]: 30.6 nM
- Kd [3]: 1320 nM
- Kd [4]: 20.7 nM
